Laboratory results taken from the supplement of paper PMC9112550, “Optimization of the antimicrobial peptide Bac7 by deep mutational scanning” (BMC Biology, 2022).

Test system: Escherichia coli TOP10
Assay: shrunken log2 fold change of peptide-encoding DNA abundance (4.5 h post-induction vs induction); higher = less antimicrobial activity (less host growth inhibition)
Details: time post-induction: 4.5 h; library: site-saturation at positions 5, 18, 19, 20
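Further: peptides expressed intracellularly from a pBAD plasmid library in pooled LB shake-flask culture, induced with 0.3% L-arabinose, DNA abundance read by NGS, three biological replicates, DESeq2 with apeglm shrinkage.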

Row | Sequence | shrunken log2 fold change
1 | RRIRNRPPRLPRPRPRPACTPRP | -0.0652
2 | RRIRARPPRLPRPRPRPDYRPRP | 0.0573
3 | RRIRGRPPRLPRPRPRPKRKPRP | 0.835
4 | RRIRTRPPRLPRPRPRPGIVPRP | -0.184
5 | RRIRSRPPRLPRPRPRPMRQPRP | 0.728
6 | RRIRPRPPRLPRPRPRPKPAPRP | 0.157
7 | RRIRFRPPRLPRPRPRPHTNPRP | -0.453
8 | RRIRQRPPRLPRPRPRPNFRPRP | -0.0457
9 | RRIRVRPPRLPRPRPRPTISPRP | -0.12
10 | RRIRFRPPRLPRPRPRPWLTPRP | -0.0554
11 | RRIRIRPPRLPRPRPRPMARPRP | -0.153
12 | RRIRCRPPRLPRPRPRPYIAPRP | -0.762
13 | RRIRFRPPRLPRPRPRPTHLPRP | 0.222
14 | RRIRRRPPRLPRPRPRPKECPRP | 0.0842
15 | RRIRPRPPRLPRPRPRPQNTPRP | -0.407
16 | RRIRTRPPRLPRPRPRPPWLPRP | 0.547
17 | RRIRVRPPRLPRPRPRPKLQPRP | 0.32
18 | RRIRKRPPRLPRPRPRPHVKPRP | -0.258
19 | RRIRQRPPRLPRPRPRPTKCPRP | 0.0325
20 | RRIRTRPPRLPRPRPRPQCTPRP | -0.175
21 | RRIRMRPPRLPRPRPRPHVPPRP | 0.107
22 | RRIRKRPPRLPRPRPRPQCQPRP | 0.114
23 | RRIRQRPPRLPRPRPRPIAKPRP | -0.00229
24 | RRIRPRPPRLPRPRPRPHICPRP | -0.0442
25 | RRIRIRPPRLPRPRPRPAYDPRP | -0.325

Row | Sequence | shrunken log2 fold change
26 | RRIRLRPPRLPRPRPRPSATPRP | 0.321
27 | RRIRPRPPRLPRPRPRPICWPRP | 0.0407
28 | RRIRWRPPRLPRPRPRPKHSPRP | 0.0898
29 | RRIRDRPPRLPRPRPRPCMWPRP | 0.569
30 | RRIRKRPPRLPRPRPRPRQLPRP | 0.8
31 | RRIRNRPPRLPRPRPRPTLYPRP | -0.3
32 | RRIRIRPPRLPRPRPRPQCSPRP | -0.46
33 | RRIRGRPPRLPRPRPRPPCSPRP | 0.238
34 | RRIRIRPPRLPRPRPRPTCTPRP | -0.807
35 | RRIRARPPRLPRPRPRPCFWPRP | 0.364
36 | RRIRHRPPRLPRPRPRPHPTPRP | -0.0838
37 | RRIRIRPPRLPRPRPRPQVDPRP | 0.0508
38 | RRIRNRPPRLPRPRPRPKFDPRP | -0.235
39 | RRIRFRPPRLPRPRPRPCQQPRP | 0.0307
40 | RRIRVRPPRLPRPRPRPNEHPRP | -0.00876
41 | RRIRTRPPRLPRPRPRPNMMPRP | -0.237
42 | RRIRLRPPRLPRPRPRPGFRPRP | 0.0673
43 | RRIRPRPPRLPRPRPRPAWCPRP | 0.252
44 | RRIRGRPPRLPRPRPRPTSMPRP | 0.643
45 | RRIRYRPPRLPRPRPRPMVWPRP | -0.0211
46 | RRIRTRPPRLPRPRPRPADFPRP | 0.0361
47 | RRIRHRPPRLPRPRPRPCRNPRP | -0.166
48 | RRIRFRPPRLPRPRPRPHMNPRP | -0.774
49 | RRIRHRPPRLPRPRPRPREQPRP | 0.628
50 | RRIRKRPPRLPRPRPRPWARPRP | 0.704

Row | Sequence | shrunken log2 fold change
51 | RRIRHRPPRLPRPRPRPQLPPRP | 0.181
52 | RRIRRRPPRLPRPRPRPNCCPRP | 0.0381
53 | RRIRPRPPRLPRPRPRPFKDPRP | -0.93
54 | RRIRIRPPRLPRPRPRPTYCPRP | -0.214
55 | RRIRDRPPRLPRPRPRPQWSPRP | -0.0128
56 | RRIRGRPPRLPRPRPRPWIVPRP | 0.189
57 | RRIRNRPPRLPRPRPRPRAGPRP | 0.25
58 | RRIRYRPPRLPRPRPRPIRWPRP | -0.114
59 | RRIRKRPPRLPRPRPRPLTAPRP | 0.403
60 | RRIRIRPPRLPRPRPRPLVKPRP | -0.0899
61 | RRIRQRPPRLPRPRPRPWSPPRP | -0.106
62 | RRIRGRPPRLPRPRPRPSEFPRP | 0.122
63 | RRIRDRPPRLPRPRPRPICEPRP | 0.229
64 | RRIRQRPPRLPRPRPRPTMTPRP | -0.0845
65 | RRIRQRPPRLPRPRPRPSEGPRP | 0.0871
66 | RRIRRRPPRLPRPRPRPYYVPRP | -0.427
67 | RRIRPRPPRLPRPRPRPFHLPRP | -0.54
68 | RRIRERPPRLPRPRPRPQCDPRP | -0.162
69 | RRIRFRPPRLPRPRPRPHIKPRP | -0.793
70 | RRIRMRPPRLPRPRPRPFQFPRP | -0.0349
71 | RRIRCRPPRLPRPRPRPMRNPRP | 0.185
72 | RRIRLRPPRLPRPRPRPLEHPRP | 0.0313
73 | RRIRSRPPRLPRPRPRPCVNPRP | -0.0338
74 | RRIRLRPPRLPRPRPRPMSQPRP | -0.219
75 | RRIRMRPPRLPRPRPRPGRGPRP | 1.26

Row | Sequence | shrunken log2 fold change
76 | RRIRTRPPRLPRPRPRPKHWPRP | 0.441
77 | RRIRDRPPRLPRPRPRPLHVPRP | -0.133
78 | RRIRRRPPRLPRPRPRPMEIPRP | -0.0055
79 | RRIRHRPPRLPRPRPRPCREPRP | 0.0163
80 | RRIRIRPPRLPRPRPRPPKGPRP | 0.0681
81 | RRIRPRPPRLPRPRPRPRPCPRP | 0.188
82 | RRIRTRPPRLPRPRPRPDRCPRP | -0.0274
83 | RRIRCRPPRLPRPRPRPMKNPRP | -0.128
84 | RRIRDRPPRLPRPRPRPKSVPRP | 0.0458
85 | RRIRNRPPRLPRPRPRPEMEPRP | -0.0148
86 | RRIRPRPPRLPRPRPRPGQMPRP | -0.0125
87 | RRIRLRPPRLPRPRPRPHTPPRP | -0.295
88 | RRIRRRPPRLPRPRPRPIMTPRP | 0.125
89 | RRIRHRPPRLPRPRPRPIVQPRP | -0.115
90 | RRIRERPPRLPRPRPRPAFGPRP | 0.353
91 | RRIRVRPPRLPRPRPRPILNPRP | -0.287
92 | RRIRTRPPRLPRPRPRPSWEPRP | 0.0239
93 | RRIRPRPPRLPRPRPRPNCNPRP | -0.518
94 | RRIRRRPPRLPRPRPRPEIAPRP | 0.84
95 | RRIRWRPPRLPRPRPRPKRWPRP | 0.441
96 | RRIRKRPPRLPRPRPRPAPVPRP | 0.668
97 | RRIRVRPPRLPRPRPRPVGDPRP | 0.294
98 | RRIRTRPPRLPRPRPRPAQWPRP | 0.0699
99 | RRIRFRPPRLPRPRPRPINMPRP | -0.319
100 | RRIRWRPPRLPRPRPRPAYSPRP | -0.153

Row | Sequence | shrunken log2 fold change
101 | RRIRYRPPRLPRPRPRPETNPRP | 0.0266
102 | RRIRSRPPRLPRPRPRPSVPPRP | -0.634
103 | RRIRIRPPRLPRPRPRPNVSPRP | -0.052
104 | RRIRFRPPRLPRPRPRPAKPPRP | 0.901
105 | RRIRQRPPRLPRPRPRPHLTPRP | -0.016
106 | RRIRRRPPRLPRPRPRPGECPRP | 0.0146
107 | RRIRKRPPRLPRPRPRPHWCPRP | 1.98
108 | RRIRIRPPRLPRPRPRPITRPRP | 0.0378
109 | RRIRKRPPRLPRPRPRPEEHPRP | 2.61
110 | RRIRVRPPRLPRPRPRPLQRPRP | -0.0358
111 | RRIRERPPRLPRPRPRPHQAPRP | 0.0779
112 | RRIRTRPPRLPRPRPRPMRKPRP | 0.375
113 | RRIRARPPRLPRPRPRPYKRPRP | -0.23
114 | RRIRARPPRLPRPRPRPYNHPRP | -0.402
115 | RRIRNRPPRLPRPRPRPRISPRP | -0.408
116 | RRIRFRPPRLPRPRPRPQDGPRP | 0.0293
117 | RRIRMRPPRLPRPRPRPKQLPRP | 0.83
118 | RRIRFRPPRLPRPRPRPSGLPRP | -0.237
119 | RRIRARPPRLPRPRPRPRWFPRP | 0.623
120 | RRIRKRPPRLPRPRPRPVAQPRP | 0.541
121 | RRIRCRPPRLPRPRPRPFFLPRP | -0.512
122 | RRIRSRPPRLPRPRPRPVWVPRP | 0.351
123 | RRIRLRPPRLPRPRPRPRNWPRP | 0.751
124 | RRIRLRPPRLPRPRPRPHNVPRP | 0.0245
125 | RRIRIRPPRLPRPRPRPISGPRP | -0.0415

Row | Sequence | shrunken log2 fold change
126 | RRIRLRPPRLPRPRPRPVHAPRP | 0.178
127 | RRIRRRPPRLPRPRPRPNFGPRP | 0.105
128 | RRIRVRPPRLPRPRPRPGYMPRP | -0.37
129 | RRIRCRPPRLPRPRPRPILHPRP | -0.575
130 | RRIRQRPPRLPRPRPRPYYSPRP | -0.39
131 | RRIRTRPPRLPRPRPRPNNAPRP | -0.303
132 | RRIRGRPPRLPRPRPRPFLYPRP | -0.11
133 | RRIRTRPPRLPRPRPRPDCFPRP | -0.138
134 | RRIRTRPPRLPRPRPRPFTIPRP | -0.293
135 | RRIRFRPPRLPRPRPRPDPRPRP | 0.182
136 | RRIRHRPPRLPRPRPRPYADPRP | -0.00783
137 | RRIRTRPPRLPRPRPRPFQEPRP | 0.00783
138 | RRIRYRPPRLPRPRPRPAILPRP | -0.402
139 | RRIRDRPPRLPRPRPRPEHDPRP | -0.0084
140 | RRIRGRPPRLPRPRPRPGDCPRP | 0.824
141 | RRIRGRPPRLPRPRPRPICGPRP | 0.728
142 | RRIRMRPPRLPRPRPRPDKRPRP | 0.076
143 | RRIRHRPPRLPRPRPRPMVNPRP | -0.469
144 | RRIRSRPPRLPRPRPRPEYMPRP | -0.609
145 | RRIRHRPPRLPRPRPRPMKTPRP | -0.0218
146 | RRIRGRPPRLPRPRPRPFDKPRP | -0.663
147 | RRIRKRPPRLPRPRPRPQFCPRP | 0.0712
148 | RRIRNRPPRLPRPRPRPRMIPRP | 0.0468
149 | RRIRMRPPRLPRPRPRPIGIPRP | -0.0706
150 | RRIRARPPRLPRPRPRPGNQPRP | -0.0242
